This note sets out measurements from the Human Domainome abundance scans (Beltran et al. 2025).

B1: Membrane-associated guanylate kinase, WW and PDZ domain-containing protein 2, residues 296 to 340; numbered along this chain, Q86UL8 (parent)
chain: EDNEEPDPLPDNWEMAYTEKGEVYFIDHNTKTTSWLDPRLAKKAK
B2: Poly(rC)-binding protein 1, residues 278 to 350; numbered along this chain, Q15365 (parent)
chain: TQTTHELTIPNNLIGCIIGRQGANINEIRQMSGAQIKIANPVEGSSGRQVTITGSAASISLAQYLINARLSSE

± gives the uncertainty stated by the source.

The variants in one data set derive from B1. Briefly: abundance fitness (aPCA) (normalised: wild type 0, dead -1); higher = more abundant; growth selection in yeast, the domain comes from the species named. The following applies: Homo sapiens.
Take Y24G: the abundance fitness was -0.816 ± 0.048.

For the variant Y24N, the abundance fitness is -1.08 ± 0.49. Take Y24T: the abundance fitness was -0.872 ± 0.097. As for E1P, the abundance fitness turned out to be 0 ± 0.11.

E1G: the abundance fitness stood at 0.009 ± 0.048. For E1R, the abundance fitness was 0.128 ± 0.063. For E1K, the abundance fitness came out at 0.058 ± 0.079. On to E1L, for which the abundance fitness is -0.023 ± 0.077.

For the variant P10V, the abundance fitness was -0.54 ± 0.044. On the same count and under the same terms, with P10A the figure was -0.528 ± 0.055; with P10Y, -0.508 ± 0.061. With P10Q, the abundance fitness was -0.469 ± 0.087. For P10C, the abundance fitness was -0.654 ± 0.13. On the same count and under the same terms, with P10W the figure was -0.469 ± 0.046. For the variant P10K, the abundance fitness is -0.498 ± 0.072. On to P10I, for which the abundance fitness was -0.637 ± 0.069. On to P10G, for which the abundance fitness was -0.436 ± 0.041. In the case of L36P, the abundance fitness was -0.776 ± 0.099.

Turning to L36A, the abundance fitness is -0.117 ± 0.067.

Regarding L36H, the abundance fitness was -0.298 ± 0.17. For the variant L36T, the abundance fitness was -0.127 ± 0.061. In the case of L36C, the abundance fitness came out at 0.153 ± 0.12. L36E: the abundance fitness is -0.111 ± 0.079. Turning to L36M, the abundance fitness is -0.053 ± 0.078. In the case of L36D, the abundance fitness was -0.227 ± 0.12.

The variants in a further data set derive from B2. The description is as above. The note with it: Homo sapiens.
Turning to A34R, the abundance fitness is -0.721 ± 0.085. For the variant A62N, the abundance fitness is -0.828 ± 0.4. In the case of I59D, the abundance fitness is -0.567 ± 0.29.

As for I59Y, the abundance fitness was -0.93 ± 0.42.

With E43Y, the abundance fitness was -0.051 ± 0.052. As to E43T, the abundance fitness is -0.119 ± 0.056. Turning to E43R, the abundance fitness is -0.061 ± 0.046.

On to I17D, for which the abundance fitness is -0.506 ± 0.15. Turning to I17S, the abundance fitness is -0.733 ± 0.091. For I17A, the abundance fitness was -0.715 ± 0.083. On to G54H, for which the abundance fitness is -0.465 ± 0.21. In the case of G54T, the abundance fitness is -0.854 ± 0.12. On the same count and under the same terms, with G54Q the figure was -1.11 ± 0.29.

P10G: the abundance fitness was -0.474 ± 0.054. For S60T, the abundance fitness worked out at 0.012 ± 0.046.

Consider S60C, for which the abundance fitness is -0.098 ± 0.062. Same read-out and setting: with R48I the figure was -0.205 ± 0.08; with R48W, -0.184 ± 0.044; with S32K, -0.8 ± 0.11. Take S32F: the abundance fitness was -1 ± 0.47. The same measure, in the same setting: with K37A the figure was -0.109 ± 0.049. On to K37D, for which the abundance fitness was -0.034 ± 0.076. Take Q30E: the abundance fitness turned out to be 0.013 ± 0.079. As to Q30R, the abundance fitness was 0.099 ± 0.038. The same measure, in the same setting: with Q30F the figure was -0.094 ± 0.16. Regarding T51Q, the abundance fitness is -0.088 ± 0.048. With T51Y, the abundance fitness is -0.07 ± 0.099. Regarding T51P, the abundance fitness is -0.682 ± 0.11.

Take T51C: the abundance fitness was 0.024 ± 0.085. Turning to T51E, the abundance fitness is -0.097 ± 0.038. Same read-out and setting: with L70P the figure was -0.499 ± 0.25.

With L70N, the abundance fitness is -0.465 ± 0.48. With N40L, the abundance fitness is -0.17 ± 0.041. Still for that read-out and setting: with N40R the figure was 0.016 ± 0.031; with N40I, -0.553 ± 0.18. Regarding N40H, the abundance fitness is -0.094 ± 0.084. In the case of A23K, the abundance fitness amounted to 0.067 ± 0.072. As to A23V, the abundance fitness is -0.09 ± 0.064. Regarding A23I, the abundance fitness was -0.115 ± 0.13.

Regarding A23M, the abundance fitness is -0.128 ± 0.076. Turning to S46K, the abundance fitness was -0.002 ± 0.044. Regarding S46Y, the abundance fitness is -0.117 ± 0.057. The same measure, in the same setting: with A56N the figure was -0.078 ± 0.078. On the same count and under the same terms, to A56E belongs -0.044 ± 0.047. Same read-out and setting: to A56M belongs 0.081 ± 0.062; to Q63M, -0.04 ± 0.07; to Q63L, 0.116 ± 0.06. As to T4Q, the abundance fitness is -0.087 ± 0.073. Still for that read-out and setting: to L61G belongs -0.504 ± 0.044; to L61C, 0.022 ± 0.063; to G47R, -0.062 ± 0.035. G47L: the abundance fitness worked out at 0 ± 0.03. Consider L65K, for which the abundance fitness is -0.422 ± 0.25. L65Q: the abundance fitness was -0.442 ± 0.14. For the variant L65W, the abundance fitness was -0.166 ± 0.066. With G22M, the abundance fitness is -0.205 ± 0.06.

Take G22T: the abundance fitness is -0.373 ± 0.073. Same read-out and setting: with G22R the figure was -0.271 ± 0.048; with V50T, -0.901 ± 0.17; with V50M, -0.202 ± 0.056. As to S58L, the abundance fitness is -0.801 ± 0.076. As for I38T, the abundance fitness is -0.403 ± 0.11. For the variant N24Q, the abundance fitness came to 0.002 ± 0.056.

For N24F, the abundance fitness is -0.13 ± 0.11. As for N24E, the abundance fitness was -0.01 ± 0.063. Turning to I36Q, the abundance fitness is -0.829 ± 0.14. Same read-out and setting: to I36R belongs -0.835 ± 0.069; to G44W, -0.424 ± 0.1; to G44D, -0.087 ± 0.13. Consider G19R, for which the abundance fitness is -0.609 ± 0.067.

As for G19Q, the abundance fitness is -0.532 ± 0.11. With I25R, the abundance fitness was -0.803 ± 0.08.

L7E: the abundance fitness is -0.331 ± 0.085. Turning to L7M, the abundance fitness was determined as 0.113 ± 0.055.

For the variant L7I, the abundance fitness was -0.013 ± 0.12. For the variant E73T, the abundance fitness is -0.03 ± 0.29. For I14W, the abundance fitness is -0.689 ± 0.11. As to I14D, the abundance fitness was -0.876 ± 0.14.

For the variant I14R, the abundance fitness was -0.573 ± 0.072. On to I14L, for which the abundance fitness was -0.115 ± 0.055. Consider T1D, for which the abundance fitness was found to be 0.167 ± 0.097.

In the case of L13N, the abundance fitness was -0.228 ± 0.12. On the same count and under the same terms, to L13W belongs -0.265 ± 0.04; to L13T, -0.181 ± 0.068; to L13V, -0.404 ± 0.051. Take L13F: the abundance fitness is -0.107 ± 0.19. Still for that read-out and setting: with R69L the figure was -0.328 ± 0.11. As to N11W, the abundance fitness is -0.425 ± 0.075.

Regarding N11S, the abundance fitness was -0.09 ± 0.064. Same read-out and setting: to G15W belongs -0.14 ± 0.054.

In the case of G15I, the abundance fitness was -0.751 ± 0.32. On the same count and under the same terms, to G15L belongs -0.465 ± 0.071; to N12R, 0.027 ± 0.039. On the same count and under the same terms, with Q49M the figure was -0.081 ± 0.045; with Q49F, -0.533 ± 0.16; with Q49V, 0.043 ± 0.034. Still for that read-out and setting: with R20Q the figure was -0.008 ± 0.064. Consider I52H, for which the abundance fitness was -0.927 ± 0.29.

On to T8G, for which the abundance fitness was -0.559 ± 0.049. As for S55W, the abundance fitness was -0.575 ± 0.065. Regarding S55V, the abundance fitness was -0.396 ± 0.056. Same read-out and setting: with I9F the figure was 0.066 ± 0.14; with I9C, -0.839 ± 0.15; with I9N, -0.805 ± 0.21. Same read-out and setting: with I9A the figure was -0.688 ± 0.081. Consider I66C, for which the abundance fitness is -0.188 ± 0.2. With H5P, the abundance fitness was -0.699 ± 0.19. Turning to H5Q, the abundance fitness was 0.253 ± 0.059. For the variant A57D, the abundance fitness was determined as 0.074 ± 0.071. The same measure, in the same setting: with T3K the figure was 0.257 ± 0.073.

E6N: the abundance fitness worked out at 0.161 ± 0.08. Consider M31C, for which the abundance fitness was 0.029 ± 0.088. Take M31S: the abundance fitness was -0.171 ± 0.053. Consider T53P, for which the abundance fitness was -0.777 ± 0.12.

As for T53S, the abundance fitness is -0.041 ± 0.042. As to I18C, the abundance fitness is -0.616 ± 0.097. V42D: the abundance fitness was -0.028 ± 0.074. As for V42M, the abundance fitness is -0.229 ± 0.067.

Turning to E27H, the abundance fitness was -0.09 ± 0.086.

On to E27T, for which the abundance fitness is -0.102 ± 0.078. Consider R29M, for which the abundance fitness is -0.022 ± 0.056. Regarding R29G, the abundance fitness was -0.142 ± 0.035. N26P: the abundance fitness was -0.682 ± 0.092. Take N26A: the abundance fitness is -0.002 ± 0.041. Consider N26D, for which the abundance fitness is -0.08 ± 0.086. In the case of Q35W, the abundance fitness is -0.21 ± 0.062. For the variant Q2D, the abundance fitness came out at 0.052 ± 0.073.

As to Q2V, the abundance fitness is 0.015 ± 0.043.

Take Q2K: the abundance fitness was determined as 0.101 ± 0.046. On the same count and under the same terms, to Q2W belongs 0.017 ± 0.04; to S45M, 0.005 ± 0.073; to S45R, -0.157 ± 0.07. Regarding G33T, the abundance fitness is -0.575 ± 0.11. Regarding S71V, the abundance fitness is -0.14 ± 0.061. On to S71D, for which the abundance fitness is -0.044 ± 0.1. As to S71T, the abundance fitness is -0.092 ± 0.068. Consider A39W, for which the abundance fitness was -0.071 ± 0.055. Turning to A39P, the abundance fitness is -0.428 ± 0.1. On to A39N, for which the abundance fitness was 0.076 ± 0.15.

On to Y64N, for which the abundance fitness was found to be 0.328 ± 0.082.

On to Y64F, for which the abundance fitness was -0.266 ± 0.23.

Turning to Y64K, the abundance fitness is 0.233 ± 0.074.
